Results taken from patent publication US20210130473A1, “TGFßR1 INHIBITOR-ASGR ANTIBODY CONJUGATES AND USES THEREOF” (Silverback Therapeutics, Inc., priority 2019, published 2021).

T1: HepG2 cells (which express ASGR1) (Homo sapiens, UniProt P07306)
T1 construct: endogenous in cells; host or cells: HepG2
T1 sequence (P07306 1-291): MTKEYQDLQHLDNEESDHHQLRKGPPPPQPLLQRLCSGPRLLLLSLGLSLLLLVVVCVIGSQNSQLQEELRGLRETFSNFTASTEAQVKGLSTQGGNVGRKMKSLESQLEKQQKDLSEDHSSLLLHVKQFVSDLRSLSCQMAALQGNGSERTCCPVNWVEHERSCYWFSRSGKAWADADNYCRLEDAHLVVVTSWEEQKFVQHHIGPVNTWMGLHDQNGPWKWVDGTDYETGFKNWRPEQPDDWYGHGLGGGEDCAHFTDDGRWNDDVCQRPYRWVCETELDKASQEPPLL


target: T1, HepG2 cells (which express ASGR1); experiment: Guava HepG2 cell binding screen of anti-ASGR1 mAbs; conditions: humanized L4L clones; Good / Poor
Protocol: Additionally, hybridomas producing monoclonal antibodies (mAbs) specific for human ASGR1 were prepared from Balb/C mice immunized with ASGR1-AviHis at a service provider using their propriety protocol. Antibody heavy and light chain sequences were obtained, amplified, and cloned. Clone supernatants containing the expressed mAbs were screened for binding to a human ASGR1-IgG1Fc fusion protein, and those with a positive signal as measured by enzyme linked immunosorbent assay (ELISA) were screened for cell binding on HepG2 cells (which express ASGR1). […] The isolated mAbs were further analyzed for the additional characteristics including, for example, titer, low aggregate content following protein A purification, high titer, lack of cross-blocking of ligand GalNac, calcium sensitivity, and cross-reactivity with rat ASGR1 protein.

Molecule	Guava HepG2 Screen
hzL4L-2: humanized L4L clone: "reduction in percent purity ... seen with the chimeric and hzL4L-1, -2 and -6" (antibody, V domains shown) VH: QVQLQESGPGLVKPSQTLSLTCTVSGGSITSDYAWNWIRQHPGKGLEWIGYISYSGSTRYNPSLKSRISITRDTSKNQFSLKLSSVTAADTAVYYCARRYRYDEGYGMDYWGQGTTVTVSS VL: DIQMTQSPSSLSASVGDRVTITCRASENIYSNLAWYQQKPGKAPKLLIYAATNLADGVPSRFSGSGSGTDFTLTISSLQPEDFATYYCQHFWGTPPWTFGGGTKVEIK	Good
hzL4L-5 (antibody, V domains shown) VH: QVQLQESGPGLVKPSQTLSLTCTVSGYSISSDYAWNWIRQHPGKGLEWIGYISYSGSTRYNPSLKSRISITRDTSKNQFSLKLSSVTAADTAVYYCARRYRYDEGYGMDYWGQGTTVTVSS VL: DIQMTQSPSSLSASVGDRVTITCRASENIYSNLAWYQQKPGKAPKLLIYAATNLADGVPSRFSGSGSGTDFTLTISSLQPEDFATYYCQHFWGTPPWTFGGGTKVEIK	Good
hzL4L-11: "Humanized sequences hzL4L-10 through hzL4L-14 were further modified by adding additional mutations in the light chain CDR2/FR3 junction, namely D56S ..., D56E ... or G57A" (antibody, V domains shown) VH: QVQLQESGPGLVKPSQTLSLTCTVSGYSITSDYAWNWIRQHPGKGLEWIGYISYSGSTRYNPSLKSRISITRDTSKNQFSLKLSSVTAADTAVYYCARRYRYDEGYGMDYWGQGTTVTVSS VL: DIQMTQSPSSLSASVGDRVTITCRASENIYSNLAWYQQKPGKAPKLLIYAATNLAEGVPSRFSGSGSGTDFTLTISSLQPEDFATYYCQHFWGTPPWTFGGGTKVEIK	Good
hzL4L-4 (antibody, V domains shown) VH: QVQLQESGPGLVKPSQTLSLTCTVSGYSITSDYAWNWIRQHPGKGLEWIGYISYSGSTRYNPSLKSRVTISVDTSKNQFSLKLSSVTAADTAVYYCARRYRYDEGYGMDYWGQGTTVTVSS VL: DIQMTQSPSSLSASVGDRVTITCRASENIYSNLAWYQQKPGKAPKLLIYAATNLADGVPSRFSGSGSGTDFTLTISSLQPEDFATYYCQHFWGTPPWTFGGGTKVEIK	Poor
hzL4L-8 (antibody, V domains shown) VH: QVQLQESGPGLVKPSQTLSLTCTVSGYSITSDYAWNWIRQHPGKGLEWIGYISYSGSTRYNPSLKSRISISVDTSKNQFSLKLSSVTAADTAVYYCARRYRYDEGYGMDYWGQGTTVTVSS VL: DIQMTQSPSSLSASVGDRVTITCRASENIYSNLAWYQQKPGKAPKLLIYAATNLADGVPSRFSGSGSGTDFTLTISSLQPEDFATYYCQHFWGTPPWTFGGGTKVEIK	Poor
hzL4L-10: "Humanized sequences hzL4L-10 through hzL4L-14 were further modified by adding additional mutations in the light chain CDR2/FR3 junction, namely D56S ..., D56E ... or G57A" (antibody, V domains shown) VH: QVQLQESGPGLVKPSQTLSLTCTVSGYSITSDYAWNWIRQHPGKGLEWIGYISYSGSTRYNPSLKSRISITRDTSKNQFSLKLSSVTAADTAVYYCARRYRYDEGYGMDYWGQGTTVTVSS VL: DIQMTQSPSSLSASVGDRVTITCRASENIYSNLAWYQQKPGKAPKLLIYAATNLASGVPSRFSGSGSGTDFTLTISSLQPEDFATYYCQHFWGTPPWTFGGGTKVEIK	Good
hzL4L-6: humanized L4L clone: "reduction in percent purity ... seen with the chimeric and hzL4L-1, -2 and -6" (antibody, V domains shown) VH: QVQLQESGPGLVKPSQTLSLTCTVSGYSITSDYAWNWIRQHPGKGLEWIGYISYSGSTRYNPSLKSRVTITRDTSKNQFSLKLSSVTAADTAVYYCARRYRYDEGYGMDYWGQGTTVTVSS VL: DIQMTQSPSSLSASVGDRVTITCRASENIYSNLAWYQQKPGKAPKLLIYAATNLADGVPSRFSGSGSGTDFTLTISSLQPEDFATYYCQHFWGTPPWTFGGGTKVEIK	Good
hzL4L-9 (antibody, V domains shown) VH: QVQLQESGPGLVKPSQTLSLTCTVSGYSISSDYAWNWIRQHPGKGLEWIGYISYSGSTRYNPSLKSRISISVDTSKNQFSLKLSSVTAADTAVYYCARRYRYDEGYGMDYWGQGTTVTVSS VL: DIQMTQSPSSLSASVGDRVTITCRASENIYSNLAWYQQKPGKAPKLLIYAATNLADGVPSRFSGSGSGTDFTLTISSLQPEDFATYYCQHFWGTPPWTFGGGTKVEIK	Poor
hzL4L-3 (antibody, V domains shown) VH: QVQLQESGPGLVKPSQTLSLTCTVSGYSITSDYAWNWIRQHPGKGLEWIGYISYSGSTRYNPSLKSRISITRDTSKNQFSLKLSSVTAADTAVYYCARRYRYDEGYGMDYWGQGTTVTVSS VL: DIQMTQSPSSLSASVGDRVTITCRASENIYSNLAWYQQKPGKAPKLLIYAATNLADGVPSRFSGSGSGTDFTLTISSLQPEDFATYYCQHFWGTPPWTFGGGTKVEIK	Good
